Test results as given in PMC3472098.

Target: T1, Rrp44exo- (exoribonuclease-dead) (budding yeast, UniProt Q08162 1-1001, D551N)
T1 sequence: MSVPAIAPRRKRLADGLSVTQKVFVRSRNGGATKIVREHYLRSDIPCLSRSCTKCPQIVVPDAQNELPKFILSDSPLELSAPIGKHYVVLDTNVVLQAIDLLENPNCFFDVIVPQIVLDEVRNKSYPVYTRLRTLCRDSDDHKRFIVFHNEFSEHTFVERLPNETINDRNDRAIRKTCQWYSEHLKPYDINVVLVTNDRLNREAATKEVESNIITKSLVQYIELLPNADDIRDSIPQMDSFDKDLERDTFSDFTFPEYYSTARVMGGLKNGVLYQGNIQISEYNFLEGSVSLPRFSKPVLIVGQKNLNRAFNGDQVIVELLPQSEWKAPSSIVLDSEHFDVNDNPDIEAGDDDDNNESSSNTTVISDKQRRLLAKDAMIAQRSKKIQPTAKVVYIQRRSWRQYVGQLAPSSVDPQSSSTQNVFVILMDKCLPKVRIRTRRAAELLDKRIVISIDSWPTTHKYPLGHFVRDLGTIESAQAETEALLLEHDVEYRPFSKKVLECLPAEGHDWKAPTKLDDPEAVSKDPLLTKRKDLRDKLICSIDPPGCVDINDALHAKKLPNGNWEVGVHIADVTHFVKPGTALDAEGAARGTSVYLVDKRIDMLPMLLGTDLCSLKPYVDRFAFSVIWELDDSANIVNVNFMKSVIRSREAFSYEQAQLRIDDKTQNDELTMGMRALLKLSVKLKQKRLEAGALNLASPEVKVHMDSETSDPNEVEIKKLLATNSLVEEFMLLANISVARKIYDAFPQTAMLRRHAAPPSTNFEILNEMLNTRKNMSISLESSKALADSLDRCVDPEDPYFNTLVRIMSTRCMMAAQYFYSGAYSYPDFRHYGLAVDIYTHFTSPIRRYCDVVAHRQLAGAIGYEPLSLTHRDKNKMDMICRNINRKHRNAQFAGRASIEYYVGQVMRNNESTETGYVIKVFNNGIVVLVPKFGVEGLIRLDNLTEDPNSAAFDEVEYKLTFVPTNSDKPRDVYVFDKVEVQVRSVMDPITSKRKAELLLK
Test: fluorescence polarization

AAAAAAAAAAAAAAAAAAAAAAAAAAAAAAAAAAAAAAAAAAAAAAAAA (ssRNA) [polyA RNA 49 nt]
binding result: binds
